From patent US11618777B2, “Method of manufacturing membrane protein and utilization thereof” (priority 2015, dated 2023)

Legend:
[1] = target: T1, human claudin-4 (residue: 1 to 183) synthesized in a cell-free system (human, UniProt O14493 1-183)
T1 sequence: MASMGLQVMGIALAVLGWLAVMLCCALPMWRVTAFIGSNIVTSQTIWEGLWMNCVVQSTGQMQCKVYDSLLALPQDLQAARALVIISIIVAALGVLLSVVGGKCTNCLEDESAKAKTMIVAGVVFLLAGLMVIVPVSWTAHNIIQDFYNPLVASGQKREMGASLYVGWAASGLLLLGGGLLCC

[2] = GlcT enzyme activity (specific activity) of cell-free synthesized human GlcT; conditions: GlcT produced by liposome method with porcine brain lipid mixture
[3] = target: C-terminal fragment (C-CPE) of Clostridium perfringens enterotoxin (CPE) (Clostridium perfringens, UniProt P01558); conditions: read-out: KD value

B1: GST tag-added C-CPE (ligand)
chain: RCVLTVPSTDIEKEILDLAAATERLNLTDALNSNPAGNLYDWRSSNSYPWTQKLNLHLTITATGQKYRILASKIVDFNIYSNNFNNLVKLEQSLGDGVKDHYVDISLDAGQYVLVMKANSSYSGNYPYSILFQKF
With B1 the Kd [1] was 3.4 nM.

B2: GlcT: Human glucosylceramide synthase, estimated 3-transmembrane enzyme, produced in a cell-free system with lipids (protein, UniProt Q16739 1-394, looked up)
Ceramide glucosyltransferase: MALLDLALEGMAVFGFVLFLVLWLMHFMAIIYTRLHLNKKATDKQPYSKLPGVSLLKPLKGVDPNLINNLETFFELDYPKYEVLLCVQDHDDPAIDVCKKLLGKYPNVDARLFIGGKKVGINPKINNLMPGYEVAKYDLIWICDSGIRVIPDTLTDMVNQMTEKVGLVHGLPYVADRQGFAATLEQVYFGTSHPRYYISANVTGFKCVTGMSCLMRKDVLDQAGGLIAFAQYIAEDYFMAKAIADRGWRFAMSTQVAMQNSGSYSISQFQSRMIRWTKLRINMLPATIICEPISECFVASLIIGWAAHHVFRWDIMVFFMCHCLAWFIFDYIQLRGVQGGTLCFSKLDYAVAWFIRESMTIYIFLSALWDPTISWRTGRYRLRCGGTAEEILDV
For B2, the “specificity (specific activity) relative to sample produced with GalCer (5%), cholesterol (5%), egg PC (90%)” value [2] was “approximately 2.7 times higher”.

B3: human claudin-4: Human claudin-4 (residue 1 to 183), 4-transmembrane tight junction protein produced by the cell-free lipid-detergent method (protein, UniProt O14493 1-183, looked up, fragment)
chain: T1 sequence
Molecule B3 has a Kd [3] of 3.4 nM.
